Assays:
[1] = conditioned-media western and immunocytochemistry; details: glycan lost; control: same mutant without Tun
[2] = anti-Hag western densitometry of cell lysates; details: glycan lost; control: native V3, Dox, no Tun
[3] = anti-Hag immunocytochemistry, extracellular V3 staining; details: glycan lost; control: native V3, Dox, no Tun

Substance	expression_or_secretion [1]	expression_or_secretion, fold_change [2]	localisation_or_trafficking [3]
versican isoform V3 (rat V3): N57Q + tunicamycin	abolishes		
versican isoform V3 (rat V3): N330Q + tunicamycin	abolishes		
versican isoform V3 (rat V3): tunicamycin		decreases	no change

Source: publication PMC7282976
